# Assay results taken from article PMC7391724 (Scientific Reports, 2020).
# What was measured:
# [1] = Whole blood stability, dog; assay type: in vitro ADME; conditions: 37 °C, after two hours, read-out: percent remaining in whole blood
# Procedure: (§1) Whole blood and plasma stability were determined for EC2629 and EC2491 at a concentration of 500 nM. Samples were extracted and analyzed using fit-for-purpose bioanalytical methods. EC2629 or EC2491 was spiked into 1 mL whole blood or plasma maintained at 37 °C for 30 min prior to use . Fifty µl aliquots were then removed at defined timepoints and stored in a 1.2 mL extraction plate prior to analysis. Samples were then extracted using protein precipitation with a 3:1 ratio of acetonitrile after addition of internal standard. The supernatant was then transferred to a new plate, evaporated, and reconstituted prior to LC–MS/MS analysis.
# [2] = Plasma protein binding (ultrafiltration), mouse; assay type: in vitro ADME; conditions: 37 °C
# Procedure: (§2) Plasma ultrafiltration was used for determination of free and protein bound fractions of EC2629 and EC2491. Samples were extracted and analyzed using fit-for-purpose bioanalytical methods. Briefly, 500 nM EC2629 or EC2491 was spiked into plasma maintained at 37 °C prior to plasma ultrafiltration. Plasma spiked with 500 nM EC2629 or EC2491 was allowed to equilibrate at 37 °C for 30 min prior to processing. Next, 50 μL of plasma was transferred to a clean 1.2 mL plate stored at 2–8 °C for further processing. The remaining plasma sample volumes were transferred to 30 Kd MWCO PES filter to generate plasma ultrafiltrate by centrifugation at 10,000×g for 20 min. After which, 50 μL of each plasma ultrafiltrate was transferred to separate wells in a clean 1.2 mL plate. To all spiked plasma samples, 50 μL of blank plasma ultrafiltrate was added. 50 μL of blank plasma was added to all experimental ultrafiltrate samples. These blank matrix additions normalized the matrix effects for protein binding determination. Samples were then extracted using protein precipitation with a 3:1 ratio of acetonitrile after addition of internal standard. The supernatant transferred to a new plate, evaporated, and reconstituted prior to LC–MS/MS analysis.
# [3] = Whole blood stability, mouse; assay type: in vitro ADME; conditions: 500 nM, 37 °C, two hours, mouse blood
# Procedure: as §1
# Plasma stability, mouse = assay type: in vitro ADME; conditions: 500 nM, 37 °C, 2 h
# Procedure: as §1
# [4] = Plasma protein binding (ultrafiltration), rat; assay type: in vitro ADME; conditions: 37 °C
# Procedure: as §2
# [5] = Plasma protein binding (ultrafiltration), dog; assay type: in vitro ADME; conditions: 37 °C
# Procedure: as §2
# KB tumor xenografts [6] = experiment: KB tumor xenograft in nu/nu mice; assay type: in vivo; conditions: EC2629 0.3 µmol/kg iv SIW x 2 weeks
# Procedure: (§3) Four- to eight-week-old female nu/nu mice and rats (Harlan Sprague Dawley, Inc.), were maintained on a standard 12-h light–dark cycle and fed ad libitum with a low-folate chow (Harlan Teklad diet #TD.01013, Madison, WI) for the duration of dosing and 1 week post dosing schedule. Mice and rats were then switched to Teklad Global 18% Rodent diet (Harlan Teklad diet #2018S) during the monitoring phase of the study. Parental KB, KB-CR2000 or KB-PR10 cells (1 × 10^6/100 µL per nu/nu mouse and 5 × 10^6/200 µL per nu/nu rat) were injected into the subcutis of the dorsal medial area. Mice were divided into groups of 5 and rats in groups of 3–4, and freshly prepared test articles were injected through the lateral tail vein under sterile conditions in a volume of 200 μL/20 g of PBS. In mice, intravenous treatments typically initiated on day 7 PTI when KB tumors were approximately 111–168 mm^3 in volume, on day 5 PTI when the KB-PR tumors were about 205–243 mm^3, and on day 6 PTI when the KB-CR tumors were around 98 to 168 mm^3. Treatments in rats were started on day 10 PTI when KB tumors were approximately 412–704 mm^3 in volume.
# Animals in the control groups received no treatment. Growth of each subcutaneous tumor was followed by measuring the tumor 3 times per week during treatment and twice per week thereafter, until a maximum volume of 1,500 mm^3 for mice and 15,000 mm^3 for rats were reached. Tumors were measured in two perpendicular directions using Vernier calipers, and their volumes were calculated as V = 0.5 × L × W^2, where L = measurement of longest axis in mm and W = measurement of axis perpendicular to L in mm[16]. As a general measure of gross toxicity, changes in body weights were determined on the same schedule as tumor volume measurements. Survival of animals was monitored daily. Animals that were moribund (or unable to reach food or water) were euthanized by CO2 asphyxiation. Individual tumor response endpoints were reported in terms of tumor volume change. A partial response (PR) was defined as volume regression > 50% but with measurable tumor (> 2 mm^3) remaining at all times. Complete response (CR) was defined as a disappearance of measurable tumor mass (< 2 mm^3) at some point within 90 days after tumor implantation. Cures were defined as CRs without tumor regrowth within the 90-day study time frame.
# [7] = Whole blood stability, rat; assay type: in vitro ADME; conditions: 37 °C, after two hours, read-out: percent remaining in whole blood
# Procedure: as §1
# [8] = Whole blood stability, human; assay type: in vitro ADME; conditions: 500 nM, 37 °C, two hours, human blood
# Procedure: as §1
# [9] = Plasma protein binding (ultrafiltration), across all species; assay type: in vitro ADME; conditions: rat, mouse, dog, human, 37 °C, read-out: plasma protein binding, range across all species
# Procedure: as §2
# Plasma stability, dog = assay type: in vitro ADME; conditions: 500 nM, 37 °C, 2 h
# Procedure: as §1
# KB tumor xenografts [10] = experiment: KB tumor xenograft in nu/nu rats; assay type: in vivo; conditions: EC2629 0.15 µmol/kg iv SIW x 2 weeks
# Procedure: as §3, with “In mice, intravenous treatments typically initiated on day 7 PTI when KB tumors were approximately 111–168 mm^3 in volume, on day 5 PTI when the KB-PR tumors were about 205–243 mm^3, and on day 6 PTI when the KB-CR tumors were around 98 to 168 mm^3. Treatments in rats were started on day 10 PTI when KB tumors were approximately 412–704 mm^3 in volume.” left out
# Animals in the control groups received no treatment. […] Tumors were measured in two perpendicular directions using Vernier calipers, and their volumes were calculated as V = 0.5 × L × W^2, where L = measurement of longest axis in mm and W = measurement of axis perpendicular to L in mm[16]. As a general measure of gross toxicity, changes in body weights were determined on the same schedule as tumor volume measurements. Survival of animals was monitored daily. […]
compound,measurement,setting,value
C=C1C[C@H]2C=Nc3cc(OCCCCCOc4cc(N)c(C(=O)N5CC(=C)C[C@H]5C5OCCN5C(=O)OCC(C)(C)SSCCC(=O)NCCNC(=O)CCOCCOCCOCCOCCNC(=O)CCN5C(=O)CC(SC[C@H](NC(=O)[C@H](CC(=O)O)NC(=O)[C@H](CC(=O)O)NC(=O)[C@H](CCCNC(=N)N)NC(=O)[C@H](CC(=O)O)NC(=O)CC[C@H](NC(=O)c6ccc(NCc7cnc8nc(N)[nH]c(=O)c8n7)cc6)C(=O)O)C(=O)O)C5=O)cc4OC)c(OC)cc3C(=O)N2C1 (stereo partly drawn) [EC2629],"remaining at 2 h, 500 nM",[1],75.8%
same,"fraction unbound at 30 min, 500 nM",[2],0.051
same,whole blood stability,[3],no observed degradation
same,plasma stability,"Plasma stability, mouse",stable
same,"fraction unbound at 30 min, 500 nM",[4],0.026
same,"fraction unbound at 30 min, 500 nM",[5],0.055
same,body weight change,KB tumor xenografts [6],did not lose any significant weight
same,"remaining at 2 h, 500 nM",[7],75.1%
same,whole blood stability,[8],no observed degradation
same,"fraction unbound at 30 min, 500 nM",[9],0.026 to 0.128
same,plasma stability,"Plasma stability, dog",stable
same,body weight change,KB tumor xenografts [10],did not lose any significant weight
